From patent publication US20190225680A1 (NASCIENT, published 2019)
Changes are numbered by the printed parent chain.

T1: human TNC rCd4-His-FBG (rat; human, UniProt P05540 207-386)
T1 construct: domain: domains 3 and 4; Biotinylated in the ELISA and HTRF assays; also called Hu TNC; human TNC FBG
T1 sequence: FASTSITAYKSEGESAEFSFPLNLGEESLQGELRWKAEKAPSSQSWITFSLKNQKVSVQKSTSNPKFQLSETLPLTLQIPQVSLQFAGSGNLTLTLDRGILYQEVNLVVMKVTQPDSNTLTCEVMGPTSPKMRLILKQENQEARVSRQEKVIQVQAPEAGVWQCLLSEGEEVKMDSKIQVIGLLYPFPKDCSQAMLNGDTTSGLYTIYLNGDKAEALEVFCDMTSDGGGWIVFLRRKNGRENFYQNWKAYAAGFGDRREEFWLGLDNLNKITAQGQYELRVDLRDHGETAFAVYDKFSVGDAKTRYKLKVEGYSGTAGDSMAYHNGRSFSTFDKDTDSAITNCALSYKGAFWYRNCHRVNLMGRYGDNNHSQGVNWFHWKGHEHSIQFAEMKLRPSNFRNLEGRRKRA

T2: human TNC rCd4-His-FBG (rat; human)
T2 sequence: T1 sequence

T3: mouse TNC rCd4-His-FBG (rat; mouse, UniProt P05540 207-386)
T3 construct: domain: domains 3 and 4; also called Mu TNC; mouse TNC FBG
T3 sequence: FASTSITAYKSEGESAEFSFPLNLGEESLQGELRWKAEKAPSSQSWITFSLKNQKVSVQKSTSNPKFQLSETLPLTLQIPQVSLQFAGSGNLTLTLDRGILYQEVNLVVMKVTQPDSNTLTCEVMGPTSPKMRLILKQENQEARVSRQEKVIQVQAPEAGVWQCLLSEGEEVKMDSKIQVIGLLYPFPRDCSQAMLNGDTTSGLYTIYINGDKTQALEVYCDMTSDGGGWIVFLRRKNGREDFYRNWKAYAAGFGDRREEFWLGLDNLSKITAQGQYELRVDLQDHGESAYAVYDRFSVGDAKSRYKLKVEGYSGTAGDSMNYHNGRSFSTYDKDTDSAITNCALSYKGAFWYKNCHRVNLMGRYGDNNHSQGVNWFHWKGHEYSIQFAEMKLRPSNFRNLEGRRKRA

B1: 165_13_D1 scFv (scFv, V domains shown)
VH: QVQLVESGGGLVQPGRSLRLSCAASGFTFDDYAMHWVRQAPGKGLEWVSGISGSGGSTYYADSVKGRFTISRDNAKNSLYLQMNSLRAEDTALYYCAKGTRGEGDTFDIWGQGTMVTVSS
VL: DIQMTQSPASLPTPVGDRVTITCRASQYIQGFLNWYQQKPGKAPKLLIYDASNLETGVPSRFSGSGSGTDFTLTISSLQPEDFATYYCQQSYSTPQTFGQGTKVDIK
notes: VH CDR3 GTRGEGDTFDI; not shown: scFv linker, domain order, and the tags of the pSANG10 vector (FLAG and others)
B2: 165_13_A4 scFv (scFv, V domains shown)
VH: B1 VH with G99D, T100K, R101Y, G102P, E103V, G104L
VL: B1 VL
notes: VH CDR3 DKYPVLDTFDI; not shown: scFv linker, domain order, and the tags of the pSANG10 vector (FLAG and others)
B3: 165_13_B1 scFv (scFv, V domains shown)
VH: B1 VH with G99V, T100M, R101S, G102S, E103M, G104E, T106A
VL: B1 VL
notes: VH CDR3 VMSSMEDAFDI; not shown: scFv linker, domain order, and the tags of the pSANG10 vector (FLAG and others)
B4: 165_13_B3 scFv (scFv, V domains shown, not shown: small tags and cut ends)
VH: B1 VH with G99A, T100L, R101A, G102R, E103G, G104H
VL: B1 VL
notes: VH CDR3 ALARGHDTFDI
B5: 165_13_B6 scFv (scFv, V domains shown)
VH: B1 VH with T100Q, R101K
VL: B1 VL
notes: VH CDR3 GQKGEGDTFDI; not shown: scFv linker, domain order, and the tags of the pSANG10 vector (FLAG and others)
B6: 165_13_C3 scFv (scFv, V domains shown)
VH: B1 VH with G99S, T100Y, R101Q, G102S, E103D, G104E, T106A
VL: B1 VL
notes: VH CDR3 SYQSDEDAFDI; Antibody C3 of the B12 family; not shown: scFv linker, domain order, and the tags of the pSANG10 vector (FLAG and others)
B7: 165_13_D4 scFv (scFv, V domains shown)
VH: B1 VH with R101V
VL: B1 VL
notes: VH CDR3 GTVGEGDTFDI; not shown: scFv linker, domain order, and the tags of the pSANG10 vector (FLAG and others)
B8: 165_13_E1 scFv (scFv, V domains shown, not shown: small tags and cut ends)
VH: B1 VH with G99D, T100I, R101S, G102A, E103V, G104M, T106V, F107P, D108Q, I109T
VL: B1 VL
notes: VH CDR3 DISAVMDVPQT; 48 is used
B9: 180_11_F5 scFv (scFv, V domains shown, not shown: small tags and cut ends)
VH: B1 VH with G99V, T100M, G102T, E103G, G104L
VL: B1 VL
notes: VH CDR3 VMRTGLDTFDI
B10: 2A5 scFv (scFv, V domains shown, not shown: small tags and cut ends)
VH: EVRLVQSGAEVKKPGASVKVSCKVSGYTLTELSMHWVRQAPGKGLEWMGGFDPEDGETIYAQKFQGRVTMTEDTSTDTAYMELSSLRSEDTAVYYCATAQKETYALTYWGQGTLVTVSS
VL: B1 VL with P14S, K45R, D50A, N53T, E55Q, T56D, S67Y, Q96W, D105E

Target: T1, human TNC rCd4-His-FBG
Assay: HTRF competition, scFv supernatant, competitor d2-labelled B12 IgG, biotinylated human rCd4-His-FBG
Method: An HTRF-based competition assay was developed to screen for antibody variants with improved binding to human TNC FBG.
All samples and reagents were prepared in assay buffer (50 mM NaPO₄, 0.1% BSA, 0.4 M KF, pH 7.0) at 4× the stated concentration. 5 μl of each reagent was subsequently added to low volume 384-well assay plates (Greiner, 784075) to give a final reaction volume of 20 μl. IgG antibodies were labelled using the d2 labelling kit (CisBio, 62D2DPEA) as directed by the manufacturer. Streptavidin europium cryptate (CisBio, 610SAKLA, Lot#25C) was used at a final concentration of 1.8 ng active moiety (SA) per 20 μl reaction as recommended by the manufacturer. Biotinylated rCd4-His-FBG was prepared using EZ-link Sulfo-NHS-LC-Biotin reagent (Thermo Scientific, 21327) the extent of biotinylation was quantified using biotinylation fluorescence quantitation kit (Thermo Scientific, 46610). Where appropriate, supernatants containing scFv (prepared as described above for ELISA assays) were added to the 384-well assay plate at a final dilution of 1/20 (i.e. 1/5 dilution in assay buffer followed by addition of 5 μl diluted sample to the 20 μl FRET assay). […] Unless otherwise stated, biotinylated rCd4-His-FBG (biotin:protein ratio=1.8:1) was present at either 2.2 nM (in assays using the 2A5 IgG antibody) or 1 nM (in experiments using B12 IgG). Samples were incubated for approximately 1 h at room temperature and the FRET signal was determined using a BMG Pherastar instrument: excitation=320 nm; emission=620 nm and 665 nm; integration start time=60 μs; integration time=500 μs; 100 flashes per well. For competition assays containing culture supernatant, biotinylated rCd4-His-FBG antigen was pre-incubated with streptavidin europium cryptate for 45 min prior to addition of reagents to the assay plate. All FRET signals are presented as ΔR, where R=(E665/E620×104) and ΔR=(Rsample−Rbackground fluorescence).
Culture supernatants containing unlabelled scFv clones from affinity selected mutant libraries were tested for inhibition of the interaction between FBG and the fluorophore-labelled parental IgG antibody.

Row | Binder | % inhibition of HTRF signal
1 | B1 | 91%
2 | B2 | 91%
3 | B3 | 91%
4 | B4 | 91%
5 | B5 | 91%
6 | B6 | 91%
7 | B7 | 91%
8 | B8 | 91%
9 | B9 | 91%

Target: T2, human TNC rCd4-His-FBG (rat; human)
Assay: as above

Row | Binder | % inhibition by parent scFv
10 | B10 | 19%

Target: T3, mouse TNC rCd4-His-FBG
Assay: anti-FLAG capture DELFIA ELISA, scFv supernatant, biotinylated mouse rCd4-His-FBG
Method: E. coli clones harbouring scFv pSANG10 expression plasmids were induced in 96-well plates with auto-induction media as described previously (Schofield et al, 2007). E. coli supernatants were harvested for ELISA assays. ELISA used the DELFIA (dissociation enhanced lanthanide fluorescent immunoassay) system with Europium-labelled anti-FLAG antibody (Sigma, Aldrich, UK). Black immunosorb plates (Nunc) were coated overnight with anti-FLAG M2 antibody (Sigma, F3165, 5 μg/ml in PBS, 50 μl per well), in wells blocked by the addition of 2% milk powder, PBS (PBS-M, 300 μl per well). Plates were washed three times with PBS-T (PBS, 0.1% Tween-20) and three times with PBS followed by the addition of a 1:2 dilution of 96-well auto-induction culture supernatants containing expressed scFv in PBS-M (50 μl per well). The plates were incubated for 1 h, washed as above and biotinylated mouse or human rCd4-His-FBG (5 μg/ml in PBS-M, 50 μl) added to each well. Plates were incubated for a further 1 h, washed and Strepravidin-Eu added (Perkin Elmer, 1 μg/ml, PBS-M, 50 μl), incubated for 30 min, washed and DELFIA enhancement solution added (50 μl) and plates read on a Perkin Elmer Fusion plate reader (excitation=320 nm, emission 620 nm). The format of the assay is shown in.

Row | Binder | fold improvement for mouse FBG binding (against the parent B12)
11 | B1 | ≥ 4 fold
12 | B2 | ≥ 4 fold
13 | B3 | ≥ 4 fold
14 | B4 | ≥ 4 fold
15 | B5 | ≥ 4 fold
16 | B6 | ≥ 4 fold
17 | B7 | ≥ 4 fold
18 | B8 | ≥ 4 fold
19 | B9 | ≥ 4 fold
